The source of these data is publication PMC9544338, “Restoration of the GTPase activity and cellular interactions of Gαo mutants by Zn^2+ in GNAO1 encephalopathy models” (Science Advances, 2022).

This test addresses T1, Gαo-GFP (C-terminally tagged) wild type (human, UniProt P09471 1-354).
T1 construct: Gαo (GNAO1); also called WT Gαo; source: N2a cells, transfected, in lysate; not shown: GFP, C-terminal, kept
Nature of the test: co-IP; N2a cells cotransfected with His6-RGS19 and Gαo-GFP (C-terminally tagged) variants, treated with 1 μM ZPT for 3 hours before IP of Gαo with a nanobody against GFP; Western blot; fold against DMSO-treated cells. The conditions noted are these: partners not purified. For orientation: Immunoblotting shows a protein as a band on a membrane.

T1 sequence (P09471 whole entry): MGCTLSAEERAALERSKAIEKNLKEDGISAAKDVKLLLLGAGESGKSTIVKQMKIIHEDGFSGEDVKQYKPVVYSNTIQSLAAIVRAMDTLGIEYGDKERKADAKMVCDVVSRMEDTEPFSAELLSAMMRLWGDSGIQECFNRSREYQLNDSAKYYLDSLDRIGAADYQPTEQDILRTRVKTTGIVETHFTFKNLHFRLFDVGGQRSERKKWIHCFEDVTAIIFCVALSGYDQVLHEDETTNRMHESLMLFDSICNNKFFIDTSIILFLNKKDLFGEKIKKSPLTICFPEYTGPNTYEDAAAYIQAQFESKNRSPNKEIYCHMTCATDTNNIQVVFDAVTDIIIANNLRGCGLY

B1: His6-RGS19 (natural protein, UniProt P49795 1-217, looked up)
chain: MPTPHEAEKQITGPEEADRPPSMSSHDTASPAAPSRNPCCLCWCCCCSCSWNQERRRAWQASRESKLQPLPSCEVCATPSPEEVQSWAQSFDKLMHSPAGRSVFRAFLRTEYSEENMLFWLACEELKAEANQHVVDEKARLIYEDYVSILSPKEVSLDSRVREGINKKMQEPSAHTFDDAQLQIYTLMHRDSYPRFLSSPTYRALLLQGPSQSSSEA
notes: RGS19 (regulator of G protein signaling 19); plasmid previously described; source: N2a cells, transfected, in lysate
For the molecule B1, the “fold increase of the interaction by ZPT over DMSO” value is approximately 2 fold.
